Results taken from patent US20250002610A1 (Genmab, published 2025).

T1: human FAPα (Fibroblast activation protein alpha), cell surface expressed (human, UniProt Q12884 1-760)
T1 construct: Endogenous on human lung fibroblasts and CAFs
T1 sequence: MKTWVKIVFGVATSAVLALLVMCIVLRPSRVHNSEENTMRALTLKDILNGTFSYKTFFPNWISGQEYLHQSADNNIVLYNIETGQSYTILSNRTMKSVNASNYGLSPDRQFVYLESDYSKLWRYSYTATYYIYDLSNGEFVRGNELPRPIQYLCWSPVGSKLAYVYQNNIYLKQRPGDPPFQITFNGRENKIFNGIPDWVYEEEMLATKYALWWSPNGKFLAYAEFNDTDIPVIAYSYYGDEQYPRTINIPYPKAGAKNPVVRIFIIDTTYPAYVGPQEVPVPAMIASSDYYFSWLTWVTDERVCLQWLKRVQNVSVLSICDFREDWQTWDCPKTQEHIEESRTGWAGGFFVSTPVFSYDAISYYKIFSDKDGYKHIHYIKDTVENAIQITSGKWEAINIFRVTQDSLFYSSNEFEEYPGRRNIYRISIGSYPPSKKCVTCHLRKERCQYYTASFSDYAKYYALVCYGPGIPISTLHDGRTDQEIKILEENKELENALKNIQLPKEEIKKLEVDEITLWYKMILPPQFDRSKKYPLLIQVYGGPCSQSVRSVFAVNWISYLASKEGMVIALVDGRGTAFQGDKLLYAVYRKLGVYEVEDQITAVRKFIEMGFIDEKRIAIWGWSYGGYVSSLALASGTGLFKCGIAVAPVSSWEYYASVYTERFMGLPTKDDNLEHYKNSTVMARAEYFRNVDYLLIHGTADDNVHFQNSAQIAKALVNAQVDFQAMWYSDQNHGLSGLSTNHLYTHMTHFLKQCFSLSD


Key:
[1] = molecular target: T1, human FAPα (Fibroblast activation …); test: flow cytometry, CAFs, n = 2
Method: (§1) Binding of bispecific or monoclonal antibodies carrying the anti-FAPα arm derived from IgG1-FAPα-FERL (BisG1-FAPα-FERL/DR4-FERR, BisG1-FAPα-FERL/b12-FERR, and IgG1-FAPα-FERL) to cell surface expressed human FAPα was analyzed by flow cytometry using human lung fibroblasts and CAFs, which endogenously express FAPα. BisG1-b12-FERL/b12-FERR was used as negative control.
(§2) Human lung fibroblasts and CAFs (50,000 cells/well) were seeded in 96-Well round bottom plates (Greiner Bio-one, Cat #650101). Antibody dilutions were prepared using fluorescence-activated cell sorting (FACS) buffer, consisting of phosphate buffer saline (PBS, Lonza, Cat #BE17-517Q)+1% Bovine Serum Albumin (BSA, Roche, Cat #10735086001)+0.02% Sodium Azide (Bio-World, Cat #41920044-3). Plates were centrifuged, supernatant was removed, cells were resuspended in 50 μL of human Fc Block (BD, Cat #564220, diluted 1:100 in FACS buffer) and 50 μL of viability stain TO-PRO-3 Iodide (Thermo Fisher, Cat #T3605, diluted 1: 25,000 in FACS buffer), and incubated for 15 min at 4° C. Plates were washed three times with FACS buffer. […] Antibody binding to viable cells (TO-PRO-3 negative) was analyzed by flow cytometry on a FACSCelesta™ (BD biosciences) and data were processed using FlowJo_v10.8.1 (FlowJo LLC). Geomean fluorescence intensity, gMFI, was determined and visualized using GraphPad Prism.

[2] = molecular target: T1, human FAPα (Fibroblast activation …); test: flow cytometry, CAFs, average ± SEM
Method: as §1, §2

[3] = molecular target: human DR4 with death domain deletion on ExpiCHO-S cells (human); test: flow cytometry, ExpiCHO-S cells expressing human DR4, average ± SEM
Sequence of human DR4 with death domain deletion on ExpiCHO-S cells (human) (chain, as listed by the source limits assumed, stated change not applied): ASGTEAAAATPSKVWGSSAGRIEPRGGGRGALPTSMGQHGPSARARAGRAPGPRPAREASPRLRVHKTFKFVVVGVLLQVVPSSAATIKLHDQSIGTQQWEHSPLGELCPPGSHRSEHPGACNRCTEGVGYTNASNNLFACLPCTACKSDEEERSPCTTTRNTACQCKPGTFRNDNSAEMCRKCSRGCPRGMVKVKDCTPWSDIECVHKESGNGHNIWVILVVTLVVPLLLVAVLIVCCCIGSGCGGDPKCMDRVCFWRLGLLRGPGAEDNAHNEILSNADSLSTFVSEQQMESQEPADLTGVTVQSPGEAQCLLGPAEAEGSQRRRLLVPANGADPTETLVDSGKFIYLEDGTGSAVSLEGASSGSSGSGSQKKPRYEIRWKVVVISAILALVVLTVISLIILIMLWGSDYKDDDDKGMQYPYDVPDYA

[4] = molecular target: T1, human FAPα (Fibroblast activation …); test: flow cytometry, CAFs, n = 1
Method: as §1, §2

| Binder | EC50 [1] | EC50 [2] | EC50 [3] | EC50 [4] |
| --- | --- | --- | --- | --- |
| BisG1-FAPα-FERL/DR4-FERR (bispecific antibody, human IgG1, kappa, lambda, Human IgG1 bispecific made by controlled Fab-arm exchange of IgG1-FAPα-FERL and IgG1-DR4-FERR; monovalent for FAPα and for DR4; also called GEN1057) heavy 1: EVQLLESGGGLVQPGGSPRLSCEASGFTFSSYALSWVRQAPGKGLEWVSAISGSGGGRYYADSVKGRFTISRDNSKNTLFLQMNSLRAEDTAVYYCAKEGYSSSGTYWDHWGQGTLVTVSSASTKGPSVFPLAPSSKSTSGGTAALGCLVKDYFPEPVTVSWNSGALTSGVHTFPAVLQSSGLYSLSSVVTVPSSSLGTQTYICNVNHKPSNTKVDKRVEPKSCDKTHTCPPCPAPEFERGPSVFLFPPKPKDTLMISRTPEVTCVVVDVSHEDPEVKFNWYVDGVEVHNAKTKPREEQYNSTYRVVSVLTVLHQDWLNGKEYKCKVSNKALPAPIEKTISKAKGQPREPQVYTLPPSREEMTKNQVSLTCLVKGFYPSDIAVEWESNGQPENNYKTTPPVLDSDGSFLLYSKLTVDKSRWQQGNVFSCSVMHEALHNHYTQKSLSLSPG light 1: AIQMTQSPSSVSASVGDRVTITCRASQGVSSWLAWYQQKPGRAPKLLIYVASTLQSGVPSRFSGSGSGTDFTLTINSLQPEDFATYYCQQANSFPPTFGQGTRLEMKRTVAAPSVFIFPPSDEQLKSGTASVVCLLNNFYPREAKVQWKVDNALQSGNSQESVTEQDSKDSTYSLSSTLTLSKADYEKHKVYACEVTHQGLSSPVTKSFNRGEC heavy 2: QVQLQESGPGLVKPSGTLSLTCAVSGGSISSYSWWSWIRQPPGKGLEWIGELYHSGSTNYNPSLKSRVTISVDKSKNQFSLKLRSVTAADTAVYYCVRGVATIDYWGQGTLVTVSSASTKGPSVFPLAPSSKSTSGGTAALGCLVKDYFPEPVTVSWNSGALTSGVHTFPAVLQSSGLYSLSSVVTVPSSSLGTQTYICNVNHKPSNTKVDKRVEPKSCDKTHTCPPCPAPEFERGPSVFLFPPKPKDTLMISRTPEVTCVVVDVSHEDPEVKFNWYVDGVEVHNAKTKPREEQYNSTYRVVSVLTVLHQDWLNGKEYKCKVSNKALPAPIEKTISKAKGQPREPQVYTLPPSREEMTKNQVSLTCLVKGFYPSDIAVEWESNGQPENNYKTTPPVLDSDGSFFLYSRLTVDKSRWQQGNVFSCSVMHEALHNHYTQKSLSLSPG light 2: QSALTQPPSASGSPGQSVTISCTGTSSDVGGYNFVSWYQQDPGKAPKLLIYEVTKRPSGVPDRFSGSKSGNTASLTVSGLQAEDEADYYCSSYAGSNNVMFGGGTKLTVLGQPKAAPSVTLFPPSSEELQANKATLVCLISDFYPGAVTVAWKADSSPVKAGVETTTPSKQSNNKYAASSYLSLTPEQWKSHRSYSCQVTHEGSTVEKTVAPTECS | 0.232 µg/mL | 0.203 µg/mL | 0.5 µg/mL | 0.159 µg/mL |
| BisG1-FAPα-FERL/b12-FERR (bispecific antibody, human IgG1, kappa) heavy 1: EVQLLESGGGLVQPGGSPRLSCEASGFTFSSYALSWVRQAPGKGLEWVSAISGSGGGRYYADSVKGRFTISRDNSKNTLFLQMNSLRAEDTAVYYCAKEGYSSSGTYWDHWGQGTLVTVSSASTKGPSVFPLAPSSKSTSGGTAALGCLVKDYFPEPVTVSWNSGALTSGVHTFPAVLQSSGLYSLSSVVTVPSSSLGTQTYICNVNHKPSNTKVDKRVEPKSCDKTHTCPPCPAPEFERGPSVFLFPPKPKDTLMISRTPEVTCVVVDVSHEDPEVKFNWYVDGVEVHNAKTKPREEQYNSTYRVVSVLTVLHQDWLNGKEYKCKVSNKALPAPIEKTISKAKGQPREPQVYTLPPSREEMTKNQVSLTCLVKGFYPSDIAVEWESNGQPENNYKTTPPVLDSDGSFLLYSKLTVDKSRWQQGNVFSCSVMHEALHNHYTQKSLSLSPG light 1: AIQMTQSPSSVSASVGDRVTITCRASQGVSSWLAWYQQKPGRAPKLLIYVASTLQSGVPSRFSGSGSGTDFTLTINSLQPEDFATYYCQQANSFPPTFGQGTRLEMKRTVAAPSVFIFPPSDEQLKSGTASVVCLLNNFYPREAKVQWKVDNALQSGNSQESVTEQDSKDSTYSLSSTLTLSKADYEKHKVYACEVTHQGLSSPVTKSFNRGEC heavy 2: QVQLVQSGAEVKKPGASVKVSCQASGYRFSNFVIHWVRQAPGQRFEWMGWINPYNGNKEFSAKFQDRVTFTADTSANTAYMELRSLRSADTAVYYCARVGPYSWDDSPQDNYYMDVWGKGTTVIVSSASTKGPSVFPLAPSSKSTSGGTAALGCLVKDYFPEPVTVSWNSGALTSGVHTFPAVLQSSGLYSLSSVVTVPSSSLGTQTYICNVNHKPSNTKVDKRVEPKSCDKTHTCPPCPAPEFERGPSVFLFPPKPKDTLMISRTPEVTCVVVDVSHEDPEVKFNWYVDGVEVHNAKTKPREEQYNSTYRVVSVLTVLHQDWLNGKEYKCKVSNKALPAPIEKTISKAKGQPREPQVYTLPPSREEMTKNQVSLTCLVKGFYPSDIAVEWESNGQPENNYKTTPPVLDSDGSFFLYSRLTVDKSRWQQGNVFSCSVMHEALHNHYTQKSLSLSPG light 2: EIVLTQSPGTLSLSPGERATFSCRSSHSIRSRRVAWYQHKPGQAPRLVIHGVSNRASGISDRFSGSGSGTDFTLTITRVEPEDFALYYCQVYGASSYTFGQGTKLERKRTVAAPSVFIFPPSDEQLKSGTASVVCLLNNFYPREAKVQWKVDNALQSGNSQESVTEQDSKDSTYSLSSTLTLSKADYEKHKVYACEVTHQGLSSPVTKSFNRGEC | 0.231 µg/mL | 0.21 µg/mL |  | 0.183 µg/mL |
| IgG1-DR4-FERR (antibody, V domains shown, Bivalent monoclonal IgG1 lambda) VH: QVQLQESGPGLVKPSGTLSLTCAVSGGSISSYSWWSWIRQPPGKGLEWIGELYHSGSTNYNPSLKSRVTISVDKSKNQFSLKLRSVTAADTAVYYCVRGVATIDYWGQGTLVTVSS VL: QSALTQPPSASGSPGQSVTISCTGTSSDVGGYNFVSWYQQDPGKAPKLLIYEVTKRPSGVPDRFSGSKSGNTASLTVSGLQAEDEADYYCSSYAGSNNVMFGGGTKLTVLG |  |  | 0.14 µg/mL |  |
